According to article PMC12658125, “Oligomerisation of Ku from Mycobacterium tuberculosis promotes DNA synapsis” (Nature Communications, 2025):

How the values were obtained:
[1] = target: the molecule itself; assay: cryo-EM structure; apo Ku-Mtb without DNA; 20 mM Tris-HCl pH 8, 75 mM NaCl, 5 mM MgCl2, 2 mM DTT, 8 mM CHAPSO; C2 symmetry imposed; step: protomers to homodimer
[2] = target: the molecule itself; assay: cryo-EM micrographs and 2D class averages
[3] = target: T1, Ku-Mtb L13A/V14A (Mycobacterium tuberculosis, UniProt P9WKD9 1-273, L13A;V14A); assay: cryo-EM; details: protein: recombinant; tags: His (Ni-NTA purified); chain copies: 2; label: 5' FAM on strand 1; 3' overhang 20 nt on strand 1
T1 sequence: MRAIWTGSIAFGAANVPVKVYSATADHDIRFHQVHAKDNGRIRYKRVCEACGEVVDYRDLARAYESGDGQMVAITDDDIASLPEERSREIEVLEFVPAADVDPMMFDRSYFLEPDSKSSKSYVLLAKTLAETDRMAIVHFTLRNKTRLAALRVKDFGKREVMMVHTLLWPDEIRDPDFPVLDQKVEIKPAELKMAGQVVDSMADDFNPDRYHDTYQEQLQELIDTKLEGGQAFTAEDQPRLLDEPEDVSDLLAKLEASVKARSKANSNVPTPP

B1: Ku protein from Mycobacterium tuberculosis, wild type (natural protein)
chain: MRAIWTGSIAFGLVNVPVKVYSATADHDIRFHQVHAKDNGRIRYKRVCEACGEVVDYRDLARAYESGDGQMVAITDDDIASLPEERSREIEVLEFVPAADVDPMMFDRSYFLEPDSKSSKSYVLLAKTLAETDRMAIVHFTLRNKTRLAALRVKDFGKREVMMVHTLLWPDEIRDPDFPVLDQKVEIKPAELKMAGQVVDSMADDFNPDRYHDTYQEQLQELIDTKLEGGQAFTAEDQPRLLDEPEDVSDLLAKLEASVKARSKANSNVPTPP
notes: also called Ku-Mtb; KuMtb
stoichiometry N [1]: 2

B2: Ku-Mtb S201A/Q197A double mutant (natural protein)
chain: MRAIWTGSIAFGLVNVPVKVYSATADHDIRFHQVHAKDNGRIRYKRVCEACGEVVDYRDLARAYESGDGQMVAITDDDIASLPEERSREIEVLEFVPAADVDPMMFDRSYFLEPDSKSSKSYVLLAKTLAETDRMAIVHFTLRNKTRLAALRVKDFGKREVMMVHTLLWPDEIRDPDFPVLDQKVEIKPAELKMAGAVVDAMADDFNPDRYHDTYQEQLQELIDTKLEGGQAFTAEDQPRLLDEPEDVSDLLAKLEASVKARSKANSNVPTPP
notes: source: over-expressed, purified
binding result [2]: binds

B3: FAM-DNA, 32 bp with 3' 20dT overhang (mixed)
DNA 1: GGAATGTAACCATCGTTGGTCGGCAGCAGGGCTTTTTTTTTTTTTTTTTTTT
DNA 2: GCCCTGCTGCCGACCAACGATGGTTACATTCC
binding result [3]: binds
